These results are taken from the RNAGym collection of RNA variant scans (doi:10.7554/elife.80360).

First the molecules themselves.
B1: HDV Ribozyme (parent)
chain: GGCCGGCAUGGUCCCAGCCUCCUCGCUGGCGCCGGCUGGGCAACAUUCCGAGGGGACCGUCCCCUCGGUAAUGGCGAAUGGGACCCA

The variants in the data set derive from B1. Nature of the data set: self-cleavage, relative activity (ratio to wild type); higher = more cleavage; co-transcriptional.
In the case of G80U C84G, the self-cleavage is 0.332.
To G80U C84U belongs 0.164; to C75G G82A, 0.208.
To A78G U79C belongs 0.225.
For G76A C84U, the self-cleavage amounted to 1.05.
To G76A C84G belongs 0.939; to G81A A87G, 0.258.
To C75A C86A belongs 0.219; to G81C, 0.268.
Take G81U: the self-cleavage stood at 0.365.
To G81A belongs 0.403; to C75U G82A, 0.202.
Take A83U C86G: the self-cleavage was found to be 0.361.
To A83U C86A belongs 0.708; to A83C A87U, 0.346; to G76C A83G, 0.554.
To G76C A83U belongs 0.464; to C84U A87G, 0.437; to U79C G82C, 0.222.
To U79C G82U belongs 0.256; to G76A U79C, 0.964; to A78U C85U, 0.18.
Regarding A78U C85A, the self-cleavage turned out to be 0.185.
Consider A78G G81C, for which the self-cleavage was determined as 0.148.
To A78G A87G belongs 0.658; to A77G A87C, 0.735.
For A77G A87G, the self-cleavage worked out at 0.966.
As for G81A C84G, the self-cleavage is 0.237.
On to G82A C86G, for which the self-cleavage was 0.279.
To C75U A87G belongs 0.0917; to A78U G80A, 0.111; to A77C G80C, 0.179.
In the case of A77C G80A, the self-cleavage worked out at 0.0378.
Consider G74U U79A, for which the self-cleavage was determined as 0.268.
For G74U C85G, the self-cleavage amounted to 0.617.
For A77C A78G, the self-cleavage was 0.151.
To A83C C84U belongs 0.582.
Take A78C A83G: the self-cleavage is 0.179.
To U79C A83G belongs 0.253; to A78C G81U, 0.128; to A78C G81C, 0.0665.
With G74U G81C, the self-cleavage amounted to 0.225.
Turning to G74U G81U, the self-cleavage is 0.156.
With G76U G82U, the self-cleavage came out at 0.483.
Turning to A77U C84U, the self-cleavage came to 0.489.
G80U C85G: the self-cleavage is 0.191.
To U79C C84A belongs 0.462; to A77G U79C, 0.443; to A77G U79G, 0.465.
With A77G U79A, the self-cleavage stood at 0.554.
To G82C A87U belongs 0.247; to G76A A83U, 0.875.
On to G82U C84G, for which the self-cleavage was 0.249.
Regarding U79A G82U, the self-cleavage was found to be 0.374.
Take U79A G82C: the self-cleavage was determined as 0.0504.
To G81C G82A belongs 0.0665.
To G81A C85U belongs 0.163; to A77U A87G, 0.591; to G74U C86G, 0.485.
In the case of A77C C84A, the self-cleavage was determined as 0.128.
On to C75A G76U, for which the self-cleavage turned out to be 0.289.
To C75A G76A belongs 0.166.
In the case of C75U C85A, the self-cleavage worked out at 0.0959.
To C75U C85U belongs 0.138; to C75U C85G, 0.122.
With A77C C86G, the self-cleavage stood at 0.302.
To A77C C86U belongs 0.519; to A78U A87U, 0.243; to G82C C84G, 0.101.
Take A78U U79G: the self-cleavage stood at 0.138.
To A78U U79C belongs 0.375.
To C75G C85U belongs 0.237; to G76A G81U, 0.437; to A78U C84U, 0.252.
With C85A A87G, the self-cleavage was found to be 0.875.
For G76C G81U, the self-cleavage is 0.475.
For G76C A78U, the self-cleavage was found to be 0.339.
Turning to G81C C86G, the self-cleavage stood at 0.138.
Regarding C85G C86G, the self-cleavage turned out to be 0.905.
To A78G belongs 0.75; to A78C, 0.164; to A78U, 0.316.
To G80U A87U belongs 0.235; to A77G A83G, 0.906.
As for C85G A87U, the self-cleavage was found to be 0.785.
Turning to G81U A83U, the self-cleavage came out at 0.126.
As to U79A C85A, the self-cleavage is 0.724.
For the variant G80A C86G, the self-cleavage came to 0.362.
To A78G C86G belongs 0.806.
Take A83G C84U: the self-cleavage came to 0.798.
On to G82C A83G, for which the self-cleavage stood at 0.233.
As to A77G G80A, the self-cleavage is 0.242.
As for G76C G82A, the self-cleavage was determined as 0.432.
Consider G76C G82C, for which the self-cleavage amounted to 0.225.
To A77C A83C belongs 0.172; to C75G G76C, 0.189; to C75U C86U, 0.0563.
To C75A G82C belongs 0.188.
C75A G82U: the self-cleavage was determined as 0.101.
Turning to U79C C85A, the self-cleavage came out at 0.389.
On to U79C C85G, for which the self-cleavage came to 0.287.
With G76A C86U, the self-cleavage is 0.92.
G81A C86A: the self-cleavage worked out at 0.805.
Regarding C84A A87C, the self-cleavage was determined as 0.758.
On to U79A A83U, for which the self-cleavage amounted to 0.256.
G82A C84G: the self-cleavage stood at 0.232.
With G82A C84U, the self-cleavage came to 0.215.
To G76C A77U belongs 0.399.
To G81C C85U belongs 0.244; to U79G A83U, 0.122; to U79G G81C, 0.26.
For C75U A77U, the self-cleavage is 0.374.
To U79G G82C belongs 0.119; to G76C C86U, 0.886; to G80C A83U, 0.164.
To A78G G80U belongs 0.12; to G82A A83C, 0.451.
As to G82A A83G, the self-cleavage was 0.156.
To G76C U79C belongs 0.643.
In the case of G76C U79G, the self-cleavage worked out at 0.617.
To G76C U79A belongs 0.649; to A78U G81C, 0.213.
To G82U A87C belongs 0.406.
Take G80A A87G: the self-cleavage was found to be 0.424.
To U79G C85A belongs 0.415; to G80A G81A, 0.185.
A83U C84G: the self-cleavage was determined as 0.332.
For A83U C84A, the self-cleavage was determined as 0.813.
To C75U G81U belongs 0.193.
To C75U G81A belongs 0.166; to A77G C85U, 1.04.
In the case of A77G C85G, the self-cleavage was 0.655.
To C75A C85G belongs 0.116.
In the case of C75A C85U, the self-cleavage is 0.256.
G80U A83G: the self-cleavage was found to be 0.253.
To G80U A83C belongs 0.254; to A77G G82A, 0.364; to A77G G82U, 0.277.
To G76A A87U belongs 1.08; to C75G A83G, 0.153.
To A77U A78C belongs 0.332.
For G81U C86A, the self-cleavage is 0.652.
To A77C A87G belongs 0.208; to A78C U79A, 0.0978.
In the case of G74U G76U, the self-cleavage was 0.794.
To G74U G76C belongs 0.831; to C75U G80A, 0.0573.
Take U79A G80U: the self-cleavage worked out at 0.148.
As to U79A G81A, the self-cleavage stood at 0.0773.
To G76U G81A belongs 0.506; to G81C A83G, 0.131; to G81C A83U, 0.237.
To G81C A83C belongs 0.222.
On to U79A C84G, for which the self-cleavage was found to be 0.256.
To A83U C85U belongs 0.446; to C75G C84G, 0.282; to A77U U79G, 0.161.
Consider G76U A77U, for which the self-cleavage stood at 0.868.
Consider A77C G82C, for which the self-cleavage was found to be 0.116.
To G76U U79A belongs 0.984; to C75G A87C, 0.073.
To G74U C84U belongs 0.213; to C75U G76U, 0.271; to C75A A87G, 0.251.
To G82U C86U belongs 0.554; to A78G C84G, 0.185; to C84A C86U, 0.719.
